PMC11098746 (2024)
No end group written: not given here.

Target: FGFR4 ectodomain (Homo sapiens, UniProt P22455)
Experiment: AVEXIS normalised luminescence

B1: 31 (protein)
chain: EGYICDFSSEKYNIYFDEQKDDVICYHEIYEGDSIGIIIPRYKEGNENIYIKTNCFNEVSLESSGNNALSIYDIFNDDEITLYDQDSIFYTEYISSILHIKKVKKNTYLHCVFESKDVNGLTTHKGIAKITIKNVKHNENKKLINNDVDNNAALSFKKKLTNKLVIDLLNKIDIIKDDKLNNQYNNDDNKFLVEAKPGDILYLLGVKRKNKKYLYVDQDCPLHFERIGSIYKYIFPIINEKEEIYNCALYVDDDVSTNKKIVGNLKITFVSKNPAINDINIDVLKKYIHSDIEQKLYKLLYGEISNSVNKYAEQNVDINNADISAIQFMNLNSDNCNNNECIEFFNNAACSSYCGKGYRLLNGNNHMYDEQMVVPCYNGECKPEDEIEP
modifications: bait human Fc-tagged dimer
Work on B1 yielded a binding score of 1.28.

B2: 65 (peptide)
chain: MNEAKEEKTNMRNNHLSRVTIEILPSDEDNDIFDINDALLDELIGINNI
modifications: also: human Fc-tagged dimer
For B2, the binding score was 1.05.

B3: 60 (protein)
chain: GIITGKLNYFGTFSLKIFAKTYFQYKINTYSNLYSYCGISQEYNKAKSTCESCPIGTFWNSEKLLCENCQKYIENTATLKNGAKLKTDCLCSPGYEYSDKSSKCEKCKPGYYKKSVGNFICIKGCPINEKSITYGAKSYAEMDCKCIEGYYRKEDKCVLCLSNYYCPGNELIKPCDKNKISKEGVIHKNDCICKENYIKDNKNNNCVYCASIAKILGKPIYCSLCDPIYFHEDIYKNIFLLPNNIHNYGLINNIYNYDEDLSLQGNIMKYAYFHKTTNIERNFAHYINIKNIYHTFNNNINNYDYLTNSKFAIEIDIPEPKKCIFCDSGYYIKKKKCISCTTKYCEGFNHNPKACPKNSVVNKMKASSIFDCSCKRGYGILNERRNAYSNTITCQICPQNFFKHIISDDSCFPCPLYTYTLNQGATSILQCLPKKGYFIYMFKSINIDYLRYKFDINTENRIYNYFENNNKIFDEDVYNFFLNKQYSKFFYNTENK
modifications: bait human Fc-tagged dimer
B3 was tested, and the binding score was 0.959.

B4: 43 (protein)
chain: LFQEYQCYGSSSNTRVLNELNYDNAGTNLYNELEMNYYGKQENWYSLKKNSRSLGENDDGNNEDNEKLRKPKHKKLKQPADGNPDPNANPNVDPN
modifications: bait human Fc-tagged dimer
For B4, the binding score was 1.37.

B5: 4 (protein)
chain: KVYQGQFYLKKNEKIHYLTKFSCNIGTCQFSIKMKLRDNIAAKLLNNYYKLNNKALKEMENDKDDGNNHNNNKYDDDNNNNNNRANKLLHMDYDNAYYVLSNQDLEYIPQRITLMQDIEQRYVNKNDKCYAFGNLKNSHMFNIPFYFKYSDLVNSKTYNLKNFINNKYSMSFNAIHSELKNNKLLQSEILNYGPILNEKNSNYAYKEIYAKTTHRVHVWFLMFDDCYDNFIRNLKLNIKTKLAYWEYLLHASKKFDISSLNDMDIKQDTSYNDFQNEETEKDIYSKENINNNNNNNMNNNMNEKKNKAIFYKSFNFDKITLLENPKRFLFLEEQFTKSEINDISFFLKYYQFKKMKNFNNMYNNLYKNGYYEQVIDYIYQNEGFHIEYEVNIFQTNKAHFSYE
modifications: bait human Fc-tagged dimer
B5 showed a binding score of 0.9.

B6: 68 (protein)
chain: LIRNSNTPQAFLIPELNNNEKNEFNNNEKNEMNNNLNNEFNNNEENCDIQKIAEEMMENLLNENDMYTNIMLSLQNRLSDDYLCSEPKYENICIHEKDKISLSFPCSNPKYEKLIHKFTFKKLCNSKAAFNNALLKSFIEEDEEQNTFSLMLKQFKILLTCVDDELKDIYKESIDLLVDLKTSITELTQKLWSGKMVNVLKKREFLITGILCELRNGNKAPLISKSLEFENLGILKMNNEELLNEAYNAFSDYYYFFPYFIQKLLEKGGMIERLIKIHENLAKYRTKDMVNKINAQSKGEVLNNEDILNKLNAYKHYTKHGATSFIQSREVKIVNQNVNNDDTTKNQQQNVNNNEKLNNNNNNNNNQQVNNNNNNNNQQVNNNNNNNNNQVNNNNNNNNNQVNNNNYNNNNQVNNNNNNNQQVNNNNNYNNQLNNNNFNNNLQVNKNDKHVPKNNHATATHTNNILYNPLYSINPEKPKDIIKLLKDLIKYLHIVKFENNEPTTNIDEEGIRKLLENSFFDLNDDILIVRLLLKPQTVILTVIQSFMLMTPSPSRDAKAYCKKALINDQLVPTNDANILSEENELVNNFATKYVLIYEKMKLQELKEMEESKLKMKYSKTNLAALQVTNPQNNKDKNDASNKNNNPNNAATPLIAVVTDLSGEKTEDIINNNVDIATLSVGVQNTFQGP
modifications: bait human Fc-tagged dimer
In the case of B6, the binding score is reported as 0.952.

B7: 49 (protein)
chain: SDSYSTGGNEKEKIFMDNYKYMWTYIYFLQKRIMMKKLSHPLYMSKKFILLHNPKDIEEFRIPLKDTLWSYVDRNSIKGFININLDSIFDIDLKEYYVHDKENMANSEKSEDLECIDAYVQKTNEIYYNMADTKDEAYIFICKKCKHIYKDIKECREKSMQLMIQNMKITVPQIRLKYDKKNRNNEEIIINIPVTYVLSNLLSSLKKTVTYNTDDLNNACNVLIKMLHLDLLKILYNLQYHNGIFNGITEKYLIEFRNIFVKRQKTNTEDNNDMIWEECFVLKKSIDKIMNINSFLLTKSRNRYMDYLQNRRKRYRDILFMITYNVADMNLNTYIKSIYNYIHISTKIIEDIQYIYNQEVYATFFVRTELIETYLLRNPKQLKNTCSIYIMITISWFFNQINIGMYNKNKNVYDLFKEKFSKSNVKQIINSIYTNNVENKANILQICNDAMTNTIELIKKVIKNYYKQNNVLSNYNINFAGLIKFIDIQILRMKFIQSTLEKQPLIEYDTLNDDHLNNDAIIKRENMVCMMKYISNKINTYISLLKKSDLQTIMLQNYDKYNIYLDTYFTHNENVFFCSSPGQYLIIKIFFYSFFNILNIYG
modifications: bait human Fc-tagged dimer
B7 was tested, and the binding score was 0.996.

B8: 40 (protein)
chain: ISTHDTCDEWSEWSACTHGISTRKCLSDSSIKDETLVCTKCDKWGEWSECKDGRMHRKVLNCPFIKEEQECDVNNEMAEDTHMNNAYIYFNADDGDNEYEDHDDKNDDDKNYDNENDDDKNDDDKNDDDKNDDDKNDDDKNDDEENYNDAEEKVKNNDIHNSAANSNNEVTNFIQIKDKIMIKHKTTNIHPVNFIQEKYTRNNKYRSDNFAKILNNMNHINNNNYNSRSSSTSSKNARGYRGGSSNMYPHVPNYASSSVHNSANNERKSDEDLDNIEGDNIAKEERIVPINNKNYDNHDEHSNIHEHDTSRNVDNEKYNSNDDLPNLATYDYDMNNDAYKKNHMKKPMDSIKEEQTKQENNQNNEKVSSSEKQNDDISALYEHMNTKDQEHTQHEQPNDAAHGHFEDYSK
modifications: bait human Fc-tagged dimer
In the case of B8, the binding score is reported as 1.75.

B9: 35 (protein)
chain: NNADINKAWKKNTYVDKKLNKLFNRALGESQVNGELASEEVKEKILDLLEEGNTLTESVDDNKNLEEAEDIKENILLSNIEEPKENIIDNLLNNIGQNSEKQESVSENVQVSDELFNELLNSVDVNGEVKENILEESQVNDDIFNSLVKSVQQEQQHNVEEKVEESVEENDEESVEENVEENVEENDDESVASSVEESIASSVDESIDSSIEENVAPTVEEIVAPTVEEIVAPSVVESVAPSVEESVEENVEESVAENVEESVAENVEESVAENVEESVAENVEESVAENVEESVAENVEEIVAPTVEESVAPTVEEIVAPSVEESVAPSVEEIVVPTVEESVAENVEEIVAPSVEEIVAPSVEEIVAPTVEESVAPTVEEIVAPSVEESVAPSVEEIVVPTVEESVAENVEESVAENVEEIVAPSVEEIVAPSVEEIVAPSVEEIVAPSVEEIVAPSVEEIVAPSVEEIVAPSVEEIVAPSVEEIVAPTVEEIVAPTVEEIVAPSVEEIVAPTVEESVAENVATNLADNLLSNLLGGIETEEIKDSILNEIEEVKENVVTTILENVEETTAESVTTFSNILEEIQENTITNDAIEEKLEELHENVLSAALENTQSEEEKKEVIDVIEEVKEEVATTLIETVEQAEEESASTITEIFENLEENAVESNENVAENLEKLNEAVFNTVLDKVEETVEISGESLENNEMDKAFFSEIFDNVKGIQENLLTGMFRSIETSIVIQSEEKVDLNENVVSSILDNIENMKEGLLNKLENIASTEGVQETVTEHVEQNVYVDVDVPAMKDQFLGILNEAGGLKEMFFNLEDVFKSESDVITVEEIKDEPVQKEVEKETVSIIEEMEENIVDVLEEEKEDLTDKMIDAVEESIEISSDSKEETESIKDKEKDVSLVVEEVQDNDMDESVEKVLELKNMEEELMKDAVEINDITSKLIEETQELNEVEADLIKDMEKLKELEKALSEDSKEIIDAKDDTLEKVIEEEHDITTTLDEVVELKDVEEDKIEKVSDLKDLEEDILKEVKEIKELESEILEDYKELKTIETDILEEKKEIEKDHFEKFEEEAEEIKDLEADILKEVSSLEVEEEKKLEEVHELKEEVEHIISGDAHIKGLEEDDLEEVDDLKGSILDMLKGDMELGDMDKESLEDVTAKLGERVESLKDVLSSALGMDEEQMKTRKKAQRPKLEEVLLKEEVKEEPKKKITKKKVRFDIKDKEPKDEIVEVEMKDEDIDEDIEEDVEEDIEEDKVEDIDEDIDEDIDEDIGEDKDEVIDLIVQKEKRIEKVKEKKKKLEKKVEEGVSGLKKHVDEVMKYVQKIDKEVDKEVSKALESKNDVTNVLKQNQDFFSKVKNFVKKYK
modifications: bait human Fc-tagged dimer
For B9, the binding score was 0.753.

B10: 5 (protein)
chain: YNIKSGNTANNIKYVNVLDNDRDINTHSVLPEVENVIERKDIYRQINFMETFVSSNNMMHDREKHTSNDAGSYEITGIVDGMKIGHPISVALGSQYSNYFDYLQIVHLDYTNSRFSFTVGEGKYYLRTYGSTYMTPSAIKIKVPCEKCKFINSEYSGIIKIIPYETNNNLFIYNWVLQTSSPLALENINTVFSDEADLIHGNSLSEEFKIDSSAAATSLNTFYGIVLHGIWSSEYAERLLTVISEFPDCVKMSAHDKNARSKQRKNQKWILVNEDLGSFDMKMEVCEEVNCDYSAIIHVSKHAFEYSKKLVHNRGRNGRYYSRRVEKILIRALLSLDFSLFITYFQQKHGVTLLDPQYDYELITNMAGYSSNNYQSWNHNLEELVELATSWDEYPKGLQKVQGLSYLLRRKNGAKHPVYPTAPAVAFPAGSQNNAFIEFMESAFVNYVDISHLVIHEVAHFIWVNTVSKELKEKWIQIGQWYKEPLSPSEWATKLEVEFVSAYAHDKNPAEDFAESMATYVLNSKLLNSRSFDKFKWIQDNLFGGGFYITTGTHKFDVINLGNEVYYFPGKVTRVRAKVLGSPTEDKLVKIYISLLSSDGSEGCAKHGYARIFSEQQTFRDLYFHTEDRSPCSHKLYGEFTMNKHESRGRWTAESMIFTGENNIERYVGLGSFHFYLYVNNQNEDVEKPIPLLDSISIYTHNAAETNDALLRLHVMVLENELIKEHGGPYASFAAHENKAYSYESRTYKMYPPEFNTLMLKADYFIRDINTRGFREVNMDSCKSYTNMDTRNLKCFQVLNPVTIPKYCIGSTYFLRQVSIEDIAGNLETVNIASDKYSARLHPIGVRDKQKPVVSNVRVSSKPANEYHDGETIVSLSFNVHDNLAGVYYIFVYLRDPHGGKHRSDIDRASLPTGTENKQINHKILLPKGSMGGTWMLEEIKAVDSCKNEARNIYTHSVYVQND
modifications: bait human Fc-tagged dimer
B10 showed a binding score of 0.798.
